From the supplement of paper PMC5998384 come the findings set out here.
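Further: synchronized HeLa Kyoto cells (double thymidine block for G1/S, nocodazole release for mitosis), protein amounts in NP-40 versus SDS lysates quantified by mass spectrometry, three biological replicates.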

This data set relates to HeLa Kyoto. Briefly: solubility change mitosis vs G1/S (difference of NP-40 vs SDS log2 ratios) (log2 ratio difference); higher = more soluble in mitosis.
In the case of PRKACA, the “solubility change mitosis (log2)” value was -0.0702.

With MRPL27, the “solubility change mitosis (log2)” value came to 0.243.

With NUDT5, the “solubility change mitosis (log2)” value was found to be 0.0137.

SUB1: the “solubility change mitosis (log2)” value stood at 0.154.

On to RPL7, for which the “solubility change mitosis (log2)” value was 0.696.

RPS27A: the “solubility change mitosis (log2)” value was found to be 0.852.

As for MRPL45, the “solubility change mitosis (log2)” value is -0.0934.

Consider MRPS34, for which the “solubility change mitosis (log2)” value was 0.0157.

Take NDUFB10: the “solubility change mitosis (log2)” value is 0.185.

Turning to RPL24, the “solubility change mitosis (log2)” value was determined as 0.971.

With NOC2L, the “solubility change mitosis (log2)” value was 0.667.

For MRPL54, the “solubility change mitosis (log2)” value turned out to be 0.343.

On to LEO1, for which the “solubility change mitosis (log2)” value is -0.0441.

Take ALYREF: the “solubility change mitosis (log2)” value came out at 0.776.

For MRPL11, the “solubility change mitosis (log2)” value turned out to be 0.173.

Regarding CAPZA1, the “solubility change mitosis (log2)” value is -0.0799.

Turning to RPL15, the “solubility change mitosis (log2)” value is 0.657.

Consider MRPL37, for which the “solubility change mitosis (log2)” value is -0.0819.

For the substance MRPL51, the “solubility change mitosis (log2)” value is -0.136.

Regarding RBX1, the “solubility change mitosis (log2)” value was -0.338.

For SETDB1, the “solubility change mitosis (log2)” value is -0.0625.

Take ARPC3: the “solubility change mitosis (log2)” value amounted to 0.222.

Consider RPS3, for which the “solubility change mitosis (log2)” value is 0.437.

In the case of CTBP1, the “solubility change mitosis (log2)” value is -0.0691.

Regarding RPL23A, the “solubility change mitosis (log2)” value is 0.826.

For GNB2L1, the “solubility change mitosis (log2)” value came to 0.272.

As to MIB1, the “solubility change mitosis (log2)” value came to 0.06.

For ACACA, the “solubility change mitosis (log2)” value was -0.227.

MRPS27: the “solubility change mitosis (log2)” value was -0.149.

In the case of FMR1, the “solubility change mitosis (log2)” value was 0.261.

As for CAMKMT, the “solubility change mitosis (log2)” value stood at 0.137.

As for SNRPN, the “solubility change mitosis (log2)” value turned out to be 0.368.

For TRIM16, the “solubility change mitosis (log2)” value is -0.177.

As for GOPC, the “solubility change mitosis (log2)” value is -0.0477.

KIAA1524: the “solubility change mitosis (log2)” value was -0.103.

Regarding DAP3, the “solubility change mitosis (log2)” value is -0.0659.

Regarding MRPL39, the “solubility change mitosis (log2)” value was -0.14.

As to RBM8A, the “solubility change mitosis (log2)” value came out at 0.468.

In the case of “MWSAGRGGAAWPVLLGLLLALLVPGGGAAKTGAELVTCGSVLKLLNTHHRVRLHSHDIKYGSGSGQQSVTGVEASDDANSYWRIRGGSEGGCPRGSPVRCGQAVRLTHVLTGKNLHTHHFPSPLSNNQEVSAFGEDGEGDDLDLWTVRCSGQHWEREAAVRFQHVGTSVFLSVTGEQYGSPIRGQHEVHGMPSANTHNTWKAMEGIFIKPSVEPSAGHDEL [SDF2L1]”, the “solubility change mitosis (log2)” value is -0.0974.

As to RPL36A, the “solubility change mitosis (log2)” value was determined as 0.902.

Regarding INPP4A, the “solubility change mitosis (log2)” value is -0.0329.

In the case of RAN, the “solubility change mitosis (log2)” value came out at 0.0277.

For the substance METAP1, the “solubility change mitosis (log2)” value came out at 0.0188.

With TOLLIP, the “solubility change mitosis (log2)” value is 0.0779.

Turning to NCAPG, the “solubility change mitosis (log2)” value was -0.0373.

For the substance RPS14, the “solubility change mitosis (log2)” value is 0.203.

RPS12: the “solubility change mitosis (log2)” value was determined as 0.588.

Turning to MRPL23, the “solubility change mitosis (log2)” value is 0.185.

With RPL11, the “solubility change mitosis (log2)” value amounted to 0.596.

For “MAGRVPSLLVLLVFPSSCLAFRSPLSVFKRFKETTRPFSNECLGTTRPVVPIDSSDFALDIRMPGVTPKQSDTYFCMSMRIPVDEEAFVIDFKPRASMDTVHHMLLFGCNMPSSTGSYWFCDEGTCTDKANILYAWARNAPPTRLPKGVGFRVGGETGSKYFVLQVHYGDISAFRDNNKDCSGVSLHLTRLPQPLIAGMYLMMSVDTVIPAGEKVVNSDISCHYKNYPMHVFAYRVHTHHLGKVVSGYRVRNGQWTLIGRQSPQLPQAFYPVGHPVDVSFGDLLAARCVFTGEGRTEATHIGGTSSDEMCNLYIMYYMEAKHAVSFMTCTQNVAPDMFRTIPPEANIPIPVKSDMVMMHEHHKETEYKDKIPLLQQPKREEEEVLDQGDFYSLLSKLLGEREDVVHVHKYNPTEKAESESDLVAEIANVVQKKDLGRSDAREGAEHERGNAILVRDRIHKFHRLVSTLRPPESRVFSLQQPPPGEGTWEPEHTGDFHMEEALDWPGVYLLPGQVSGVALDPKNNLVIFHRGDHVWDGNSFDSKFVYQQIGLGPIEEDTILVIDPNNAAVLQSSGKNLFYLPHGLSIDKDGNYWVTDVALHQVFKLDPNNKEGPVLILGRSMQPGSDQNHFCQPTDVAVDPGTGAIYVSDGYCNSRIVQFSPSGKFITQWGEESSGSSPLPGQFTVPHSLALVPLLGQLCVADRENGRIQCFKTDTKEFVREIKHSSFGRNVFAISYIPGLLFAVNGKPHFGDQEPVQGFVMNFSNGEIIDIFKPVRKHFDMPHDIVASEDGTVYIGDAHTNTVWKFTLTEKLEHRSVKKAGIEVQEIKEAEAVVETKMENKPTSSELQKMQEKQKLIKEPGSGVPVVLITTLLVIPVVVLLAIAIFIRWKKSRAFGDSEHKLETSSGRVLGRFRGKGSGGLNLGNFFASRKGYSRKGFDRLSTEGSDQEKEDDGSESEEEYSAPLPALAPSSS [PAM]”, the “solubility change mitosis (log2)” value was -0.0982.

Consider MRPL24, for which the “solubility change mitosis (log2)” value was 0.022.
